# Results reported in paper PMC7396675, “Functional and Structural Characterization of a Potent C1q Inhibitor Targeting the Classical Pathway of the Complement System” (Frontiers in Immunology, 2020).
# T1: monomeric single-chain recombinant gC1q (Homo sapiens)
# T1 construct: globular head module of human C1q A-chain; numbers count on: the mature protein; globular head module of human C1q C-chain; globular head module of human C1q B-chain; also called single-chain form of gC1q; hC1qGH
# T1 chain: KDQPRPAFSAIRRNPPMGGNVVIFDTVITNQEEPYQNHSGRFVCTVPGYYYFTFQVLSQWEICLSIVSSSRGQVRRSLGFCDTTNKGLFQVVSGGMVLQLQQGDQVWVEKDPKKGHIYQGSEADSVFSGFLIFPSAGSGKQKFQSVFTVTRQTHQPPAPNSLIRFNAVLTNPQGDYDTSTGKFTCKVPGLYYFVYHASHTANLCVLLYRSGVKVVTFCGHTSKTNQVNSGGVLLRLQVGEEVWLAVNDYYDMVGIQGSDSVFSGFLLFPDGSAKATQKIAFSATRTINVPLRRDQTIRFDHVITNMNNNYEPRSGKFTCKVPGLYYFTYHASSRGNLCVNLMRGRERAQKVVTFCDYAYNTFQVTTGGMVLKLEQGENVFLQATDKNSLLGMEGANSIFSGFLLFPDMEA
# B1: C1qNb75 (VHH)
# VHH: QVQLVETGGGLVQAGGSLRLSCAASGRTFNNDVMAWFRQAPGTEREFVALITAGGGTHYADSVKGRFVISRDNDKNMAYLQMNSLKSEDTAIYYCGADENPPGWPSRWSSAYDYWGQGTQVTVSS
# notes: nanobody chain of the crystal structure deposited here as PDB 6Z6V; also called C1q specific nanobody; source: E. coli LOBSTR cells (pET22b+), purified (Ni-NTA, MonoS, Superdex75)
# Tests used:
# [1] = biological target: T1, monomeric single-chain recombinant gC1q; assay: BLI; Octet Red96, 30°C, 1,000 rpm; C1qNb75 immobilized on amine reactive (AR2G) biosensors; kinetics buffer (PBS, 1 mg/mL BSA, 0.05% Tween 20); gC1q 0.3 to 10.9 nM, C1q 0.7 to 5.4 nM; gC1q data globally fitted with a 1:1 binding model; settings: both partners purified
# human C1q = human C1q (Homo sapiens, UniProt P02745;P02746;P02747); assay: cell-based or functional assay
# Sequence of human C1q (P02745 23-245, chain 1 of 2): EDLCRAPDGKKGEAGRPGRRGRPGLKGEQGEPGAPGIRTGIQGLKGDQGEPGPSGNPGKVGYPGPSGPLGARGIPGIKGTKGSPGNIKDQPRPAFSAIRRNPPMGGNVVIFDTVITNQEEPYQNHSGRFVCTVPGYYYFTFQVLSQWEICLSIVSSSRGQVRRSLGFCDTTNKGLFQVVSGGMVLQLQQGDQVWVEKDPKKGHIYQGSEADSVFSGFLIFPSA
# Sequence of human C1q (P02747 29-245, chain 3 of 2): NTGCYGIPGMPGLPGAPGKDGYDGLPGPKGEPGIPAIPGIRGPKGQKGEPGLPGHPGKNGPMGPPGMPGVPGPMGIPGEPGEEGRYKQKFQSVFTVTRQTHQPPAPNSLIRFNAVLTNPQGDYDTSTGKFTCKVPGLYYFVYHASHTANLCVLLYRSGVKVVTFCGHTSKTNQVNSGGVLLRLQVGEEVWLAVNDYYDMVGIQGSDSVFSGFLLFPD
binder,measurement,setting,value
B1,Kd,[1],0.3 nM
same,t1/2,[1],1.14 h
same,IC50 of hemolysis of IgM-sensitized sheep RBCs in NHS with increasing concentrations of C1qNb75 (blocks C1q binding to IgM),human C1q,5.8 nM
